Experimental data as given in patent US20050226876A1 (Hoffmann-La Roche, published 2005).

What follows are binders tested against T1, Recombinant P-selectin (R&D Systems) (human, UniProt P16109 42-771) (assay: SPR, BIACORE 2000; antibody captured by anti-human Fcγ, recombinant P-selectin 0-50 nM injected; 1:1 Langmuir fit).
T1 construct: extracellular domain; also called recombinant human P-selectin; recombinant truncated form of P-selectin
T1 sequence (looked up): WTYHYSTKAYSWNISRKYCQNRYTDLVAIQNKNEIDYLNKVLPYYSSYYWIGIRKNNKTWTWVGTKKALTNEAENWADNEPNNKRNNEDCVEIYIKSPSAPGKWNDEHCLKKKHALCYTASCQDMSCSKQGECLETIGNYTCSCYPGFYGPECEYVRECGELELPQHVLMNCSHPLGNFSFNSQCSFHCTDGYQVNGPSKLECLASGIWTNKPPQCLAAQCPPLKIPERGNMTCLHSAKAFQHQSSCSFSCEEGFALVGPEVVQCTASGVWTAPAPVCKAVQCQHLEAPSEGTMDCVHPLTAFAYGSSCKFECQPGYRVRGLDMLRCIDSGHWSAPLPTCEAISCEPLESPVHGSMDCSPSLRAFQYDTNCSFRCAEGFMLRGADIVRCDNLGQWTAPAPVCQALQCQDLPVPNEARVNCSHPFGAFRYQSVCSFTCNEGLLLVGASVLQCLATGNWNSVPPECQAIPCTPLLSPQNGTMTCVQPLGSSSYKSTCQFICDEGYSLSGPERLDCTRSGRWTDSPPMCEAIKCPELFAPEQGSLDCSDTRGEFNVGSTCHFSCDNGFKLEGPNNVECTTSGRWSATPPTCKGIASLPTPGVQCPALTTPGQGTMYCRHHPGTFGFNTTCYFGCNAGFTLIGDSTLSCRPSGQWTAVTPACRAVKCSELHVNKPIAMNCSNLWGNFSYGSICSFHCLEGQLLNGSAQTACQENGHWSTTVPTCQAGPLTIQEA
Description: Recombinant P-selectin (R&D Systems) was added in various concentrations between 0-50 nM. Association was measured by P-selectin-injection for 120 seconds; dissociation was measured by washing the chip surface with buffer for 180 seconds. Using Biaevaluation Software the kinetic data were fitted to a 1:1 Langmuir binding model of P-selectin to the presented monoclonal antibody.

| Binder | Ka [M⁻¹] | Kd [nM] | koff [s⁻¹] | kon [M⁻¹ s⁻¹] |
| --- | --- | --- | --- | --- |
| HuMab 017 (antibody of cell line hu-Mab<P-selectin>LC 1004-017, DSM ACC2642) (antibody, V domains shown, Human monoclonal antibody; also called antibody 017) VH: QPQLVQSGAEVKKPGASVKVSCKVSGNTLTELSMHWVRQAPGKGLEWMGGFDPENGEAIYAQKFQGRVTMTADTSTDTAYMDLSSLRSEDTAVYYCATDLAGGSDFYYYGLDVWGQGTTVTVSS VL: AIQLTQSPSSLSASVGDRVTITCRASQGISSALAWYQQKPGKAPKLLIYDASSLESGVPSRFSGSGSGTDFTLTISSLQPEDFATYYCQQFNSYPYTFGQGTKLEIK | 5.59e+10 | 0.0179 | 1.39e-05 | 779000 |
| HuMab 003 (antibody, V domains shown, Human monoclonal antibody; also called antibody 003; LC 1004-003) VH: QVQLVESGGGVVQPGRSLRLSCAASGFTFSSYGMHWVRQAPGEGLEWVAVIWYDGTFKYYADSVKGRFTISRDNSKNTLSLLMNSLRAEDTAVYYCTRGGYYGSGSSFDYYYYGMDVWGQGTTVTVSS VL: DIQMTQSPSSLSASVGDRVTITCRASQGISSWLAWYQQKPEKAPKSLIYAASSLQSGVPSRFSGSGSGTDFTLTISSLQPEDFATYYCQQYHSYPLTFGGGTKVEIK | 2.27e+09 | 0.441 | 0.000291 | 660000 |
| HuMab 005 (antibody, V domains shown, Human monoclonal antibody; also called antibody 005) VH: QVQLVESGGGVVQPGRSLRLSCAASGFTFSSYGMHWVRQAPGEGLEWVAVIWYDGTFKYYADSVKGRFTISRDNSKNTLSLLMNSLRAEDTAVYYCTRGGYYGSGSSFDYYYYGMDVWGQGTTVTVSS VL: EIVLTQSPATLSLSPGERATLSCRASQSVSSYLAWYQQKPGQAPRLLIYDASNRATGIPARFSGSGSGTDFTLTISSLEPEDFAVYYCQQRSNWPPVTFGQGTRLEIK | 2.91e+09 | 0.343 | 0.000289 | 842000 |
| HuMab 001 (antibody of cell line hu-Mab<P-selectin>LC 1004-001, DSM ACC2640) (antibody, V domains shown, Human monoclonal antibody from transgenic mice; kappa light and gamma1 heavy chains by the cloning section; also called antibody 001; HuMab 1004-001) VH: EVQLVESGGGLVQPGGSLRLSCAASGFTFSSYDMHWVRQATGKGLEWVSGITTAGDTYYPGSVKGRFTISRENAKNSLYLQMNSLRAGDTAVYYCARGRISMDRGVKNNWFDPWGQGTLVTVSS VL: EIVLTQSPATLSLSPGERATLSCRASQSVSSYLAWYQQKPGQAPRLLIYDASNRATGIPARFSGSGSGTDFTLTISSLEPEDFAVYYCQQRNNWPLTFGGGTKVEIK | 1.45e+09 | 0.689 | 0.000419 | 608000 |
